Assay results from a protein production outcome set (Wang et al. 2014).

Assay: label from the status in PepcDB records

| Sequence | protein production |
| --- | --- |
| GQTAKLVSLRDISDRKRMENQLRENQNKYYRLLENLDNGVIVHNANAEIVYANPKAESFLGLTDLEGRDIDDEYWMFFDKEGEKLEKEEFPVAQVLANQSSLKNFEMGIYRPDTDQLLWAYINAYPEFYNE | failed |
| GRDFAVDTKIETIGLTGSLSFKVNDNFSLGAGVIIQRTSGFVSQNLDLYASAANSPGMGGIPFPASNSSALMRVKVDNTSPGFFAGAVWKPTDRDTLGFAYHAKIRNKLKGHYNLYDHDGGLTEGAIEGGTPGLAYPGLDLRMGASASARLDIPAYASLDWVHQFNDRLSLGASATWTEWSSFQDLTLKSHGNTIVSIPYTYRNTWTLAVGGDYKVTDQWTMRAGVAYDQTPTHNATRDPRIPDGDRYFASLGAGYRFQSMPELSIDAAYSRQFVKEVPLKTV | failed |
| GSHFYFLSKRRRNLLRNPCGEEDLEGWSDVEHGGDGWKVEELPGDNGVEFTQDDSVKKYFASSFEWCRKAQVIDLQAEGYWEELLDTTQPAIVVKDWYSGRTDAGSLYELTVRLLSENEDVLAEFATGQVAVPEDGSWMEISHTFIDYGPGVRFVRFEHGGQDSVYWKGWFGARVTNSSVWVEP | not failed |
| GSHMDKTFCVVVQNRIKEGYRRAGFSFHLGDNSLAAVSESQLAQLKADPRLVVQITETGSQEGGEGLSKEPAGSDEQKQLRADPPSTDLNTFTVEQLKAQLTERGITFKQSATKAELIALFAPADGEKSEA | not failed |
| GSLKCILLNQAEELPIEFLPKDGVYGKGKLFDSRNMEIENFTESDILQDARRAAEAHRRARYRVQSIVRPGITLLEIVRSIEDSTRTLLKGERNNGIGFPAGMSMNSCAAHYTVNPGEQDIVLKEDDVLKIDFGTHSDGRIMDSAFTVAFKENLEPLLVAAREGTETGIKSLGVDVRVCDIGRDINEVISSYEVEIGGRMWPIRPISDLHGHSISQFRIHGGISIPAVNNRDTTRIKGDSFYAVETFATTGKGSIDDRPPCSHFVLNTYKSRKLFNKDLIKVYEFVKDSLGTLPFSPRHLDYYGLVKGGSLKSVNLLTMMGLLTPYPPLNDIDGCKVAQFEHTVYLSEHGKEVLTRGDDY | not failed |
| GSLQDNSSYPDEPWRITEEQREYYVNQFRSLQPDPSSFISGSVAKNFFTKSKLSIPELSYIWELSDADCDGALTLPEFCAAFHLIVARKNGYPLPEGLPPTLQPEFIVTD | not failed |
| GSQPKLTEAVSLMEANIEEPLSTDDIAYYVGVSRRQLERLFKQYLGTVPSKYYLELRLNRARQLLQQTSKSIVQIGLACGFSSGPHFSSTYRNHFNITPREERAQRAQPGAL | not failed |
| GSSGSSGGYFDAHALAMDYRSLGFRECLAEVARYLSIIEGLDASDPLRVRLVSHLNNYASQREASGPSSG | not failed |
| GSSGSSGMPMTLGYWDIRGLAHAIRLFLEYTDSSYEEKRYTMGDAPDYDQSQWLNEKFKLGLDFPNLPYLIDGSHKITQSNAILRYLGRKHNLCGETEEERIRVDILENQLMDNRMVLARLCYNADFEKLKPGYLEQLPGMMRLYSEFLGKRPWFAGDKITFVDFIAYDVLERNQVFEAKCLDAFPNLKDFIARFEGLKKISDYMKTSRFLPRPMFTKMATWGSNSGPSSG | not failed |
| GSSGSSGMTPLVKDIIMSSTRMPALFLGHGSPMNVLEDNLYTRSWQKLGMTLPRPQAIVVVSAHWFTRGTGVTAMETPPTIHDFGGFPQALYDTHYPAPGSPALAQRLVELLAPIPVTLDKEAWGFDHGSWGVLIKMYPDADIPMVQLSIDSSKPAAWHFEMGRKLAALRDEGIMLVASGNVVHNLRTVKWHGDSSPYPWATSFNEYVKANLTWQGPVEQHPLVNYLDHEGGTLSNPTPEHYLPLLYVLGAWDGQEPITIPVEGIEMGSLSMLSVQIG | not failed |
| GTTVPAPIMQTTDNSLTWLLQNLLDRTPGTRHALVLSRDGLRLCWTEHLTLDRADQLAAICSGIQALAQGASVEFGNGTGGVRHSMTEFHGGLLFIVEAGEGAHLAVVAVEDADPGVVGHQMTELVEQIGEHLRAEPRH | failed |
| GVAVEVRGLPPAVPDELLTLYFENRRRSGGGPVLSWQRLGCGGVLTFREPADAERVLAQADHELHGAQLSLRPAPPRAPARLLLQGLPPGT | not failed |
| GVKYTIAVLGPQGSFSEEMALKLVGSRVPLRYCSTTDEIIKLVESGEVDYGLVPIENSVNGTVLPVIDALLNHDVEVFGEAKLEVNHCLVAKRKIELKEIKTIYSHPQAVAQCMGFINNYLPSVAIRYTTSTSDAARMLDDYSAAIMSENAARFYRLHVLRKGIQDLKGRNITRFYLIRRRSG | failed |
| GVQKVDKARKQITVAGGTRINEVGKTLKQHGLSLINQGDIDSQAVAGAFTTGTHGTGIKLGNMASSIAGMRIVKANGEILDIDGSDEELLHAAQVSVGTLGIISSMTLNVMDA | failed |
| GVTYLLAKRKILYFEAVESKIFVYTEKDVYETTWKLYELEEKFKDSSFFRCSKSMILNIEWIEKIAPGFHGKFEASLFNREKVIISRQYAKILKQKLNLGGKGK | failed |
| GWKVEYMAIADPQTIDQTPIVIVGGAFQNFNSYKYCVEQLFHCGPVILIDLPSMGANQQITNRDSGVSAAVLELPDLAKILVEWLDIIKIQKISMMGMSLGSVVASCFADLRPDMIDRLVLMGVMQKTRKSWRMILEESLKLMQENRMEEFGQAVILYLVNHAKLDQTRMSPTAKRLFFRQMAEFNPTERLRYEINCQRLLRLKDVPIPQCKTLVAAGQYDSFTLPFENANFALQCPDVEFALIANADHVPQLQRRKETMRLFETFLNH | failed |
| HALQAGRLGSTVFVANLDYKVGWKKLKEVFSMAGVVVRADILEDKDGKSRGIGTVTFEQSIEAVQAISMFNGQLLFDRPMHVKMDERALPKGDFFPPERPQQ | failed |
| HCSADLVLVEPTPLAVLDRIALVTDNGPFDPRKVELANGLAAAAGASLVLGHAVPADATEDQRATVRTYHEDLMGLCTVPVESNIVGTTTPAAMARAVSAADLVVVESDAAWWARLLDNREPQRIAGAFGGPAIVVRPQQAEGPSPVRRLLERVAF | failed |

| Sequence | protein production |
| --- | --- |
| HEHPTSAGGDGGAGTGAVGTHDGSAAAAAAAAALPSISGARGHAGPEGGHDNDMGGMDASGGGGGGGYGRLPGLAAQSSMASVDGDEASLPPIANLSLGKANMTGSTVGGAAHASTRRSTLNTYYEPGAGGGGGTGGAGGGGGGAGPGPAGYGKVAKAAAVGGAGSVAGGGGVVGGAGVGGGGAVGSGTVGRRQSVGVVVGKYGSVNKQASQGHGGGGPGVAGAAGMAVTGGHAGGGVGGGGGGAVGVGGVGVNKYKANVGKTNSKYISPYSLRQLAG | failed |
| HERVGNLNQPIEVTALYSFEGQQPGDLNFQAGDRITVISKTDSHFDWWEGKLRGQTGIFPANYVTMN | not failed |
| HLGIPPSGALDQYALRAANLLVGNAPTAAVLECALLGPQLEFQRDALVAVCGARMTPRLEGAEMPLDTSFRVRAGQVLGFDFIRAGARGYLAIDGGIAVPEVLGSRSTYGLGAIGGLQGRRLAEGDLLPLGPASPSAVEGLALPRSLQVEVGGEVSLRVVPGLYVHRLTPDAVERFFAETWTVGSEADRTGYRFKGGTALRFEPREQPFGAGSDPSNIVDACYPIGSIQVPGGLEPIVLHRDAVSGGGYATLGTVISPDLNRLAQMQPNQKGRFVAVSLEEGLEARRRYNWQ | failed |
| HPEKCSECSYSCSSKAALRIHERIHCTDRPFKCNYCSFDTKQPSNLSKHMKKFHGDM | not failed |
| HSAIVILDSRGNIQRFNRLCEDYTGLKEHDVIGQSVFKLFMSRREAAASRRNNRVFFRSGNAYEVELWIPTRKGQRLFLFRNKFVHSGSGKNEIFLICSGTD | failed |
| HYRRALSGPVDPGLAVFSAYWDRGVSCNPAAIAAKLAELAPHIHPVWVVARNKAALLPPGTDHIVPGTRRYWEVMARAKYLVNNVNFPNSVVKRPDAIHLQTHHGTPLKRMGLDQREFPAASKGLDFGALLARIDKWDYSVSANSHSTRMWERAYPSHYISLDHGYPRNDVFYSATADDIRAIRDRLGIPPGRRAILYAPTHRDYEAGWTPRLDLASLADRLGEETVLLVRGHYFYGGAASPLAGLRRSGRVIDVSTYDPVEELCLAADALVTDYSSIMFDYANLNRPIVIYADDWETYAKTRGVYFDLMAEGPGQVTRTQDELAAVFESGAWRDEGARKALSAFRRRFCEFDDGRAAERVVR | failed |
| IDFRPYGGFIFDMDGTLIDTMPAHLAAWQATADRFDFPFCQEWLHSLGGMPSFKIVAELNRHYGLSLDPQTVSKFKMETFAAMELQGDVIQCTGIVLEEYLGQKKIAVGTGSQRESAMRLLSHAGLIDRLDAVVTASDVENHKPCPDTFLLAADRLGIDAQNCLVFEDTELGKRAAHSAGMDCVMVEGNNLV | failed |
| IDLAHPDLALHLHLNRGGAVLSLDGSGVSLHRRGYRAAMGAAPLKENLAAGLIQLTGWDGRMPLVDPFCGSGILLIEAVTMALQQAPGLGRQFGLEGWADFDRELWEREHARARQRRRSDLDLAPVVGYEQDPLIADQARDNIRAAGLDGLISIHSGSFEQQTLPPGPGLLVCNPPYGHRVGSEDDLEQLYRLLGSFVREQASGWQLWLLSGNASLTGALRLKASRRIPVSNGGIDCRWLNYGIR | failed |
| IKENAAQEVLEVQKVIDRLADNGQKALKAFESYNQEQVDNIVHAMALAGLDQHMPLAKLAVEETGRGLYEDKCIKNIFATEYIWNNIKNNKTVGVINEDTQTGVIEIAEPVGVVAGVTPVTNPTSTTLFKAIIAIKTRNPIIFAFHPSAQRCSSEAAKVVYDAAVAAGAPEHCIQWVEKPSLEATKQLMNHDKVALVLATGGAGMVKSAYSTGKPALGVGPGNVPAYIDKTAKIKRSVNDIILSKSFDQGMICASE | failed |
| IKNFLYAWCGKRKMTPAYEIRAVGNKNRQKFMCEVRVEGFNYAGMGNSTNKKDAQSNAARDFVNYLVRINEVKSEEVPAVGIVPPP | not failed |
| IKQMLLDWCRAKTRGYEHVDIQNFSSSWSDGMAFCALVHNFFPEAFDYGQLSPQNRRQNFEVAFSSAETHADCPQLLDTEDMVRLREPDWKCVYTYIQEFYRCLVQKGLVKTKKS | not failed |
| ILQLTSDTLILVDKNGTCLDIDPHSDLWFLQEDRLLGKNLFNLLPDHTFQKLLPDFRRVTQQGITVNRNYRLPLEGGETYYFKCIMQPYDGDKVLCQYRDIT | failed |
| INKIENYEQSTSQLREEINALYNQVIEVGQALSKQRRIVARELRDHIVSEIQNLQMKDANLEISFKKLEEPNIDGIEFVEFLISPNKGEPLKSLNKIASGGELSRIMLALKSIFVKSRGQTAILFDEVDSGVSGQAAQKMAEKMRDIAEYIQVICISHLPQVASMSDHHLLI | failed |
| INYYDTYIKTCLDNLKRKNTRRSIKLDGKGEPKGAKRAKPVKYTAAKLHEKGVLLDIDDLQTNQFKNVTFDIIATEDVGIFDVRSKFLGVEMEKVQLNIQDLLQMQYEGVAVMKMFDKVKVNVNLLIYLLNKKFYGK | failed |
| IPKHPDSEAVAPDPFNPAATQLLDDTSWVLSAWKQADGTARAVPSADQGAPITLTLSTSTGQRHASGFSGCNRYMGSYALKDGKLSFGTLGGTRMACMTPGGQIEGAYLNALTHIDRTGVQMRAPQQMQLVLDNGDTLTFDRSTR | not failed |
| IPLEQGIEFLSVNVEEDSPVVGKKLKDLPLPRDSIIAAIVRGGVLVVPRGDTEILSGDKLYVIVSAEAKETVEETLLGR | not failed |
| IQVDYEDVKLDGYFFSPSWIKGPKPTILALNGGDEWSIENYFWLGPAFISCGYNFMVYDQPGTGLSMYEKGKGRRADSEAFHSRAIDFLLTRPEVDPNKIIVHGESFAAYDSLRFASFDHRIAAVISDGGTHAFDWEAMLKWMPPSLAGHGMRILGAKSLDDFAENPRFAYNLEGVLHQIECPLLVMHGAEEILVQPNPLTQALKNYEQAGSKNKTFFPIEDRRIGGLEHCQVDNINVLHEVVLNWL | not failed |
